Assay results from patent publication US20170082635A1 (University of California, published 2017).

B4: yeast 20 S proteasome subunit β3 (PUP3) (other, UniProt P25451 1-205, looked up)
chain: MSDPSSINGGIVVAMTGKDCVAIACDLRLGSQSLGVSNKFEKIFHYGHVFLGITGLATDVTTLNEMFRYKTNLYKLKEERAIEPETFTQLVSSSLYERRFGPYFVGPVVAGINSKSGKPFIAGFDLIGCIDEAKDFIVSGTASDQLFGMCESLYEPNLEPEDLFETISQALLNAADRDALSGWGAVVYIIKKDEVVKRYLKMRQD

What was measured:
[1] = biological target: B4; experiment: DSSO XL-MS of purified yeast 20S proteasome
HB-Rpt6 = biological target: T1, HB-Rpt6 (human, UniProt P62195 2-406); experiment: in vivo azide-A-DSBSO XL-MS of HB-tag purified human proteasome
T1 construct: whole, on cells; stably expressed in 293 cells; used for all links whose Bait column says Rpt6; residue numbers count on P62195, not on the tagged construct; also called Rpt6 (bait); HB tagged proteasome subunit Rpt6; not shown: HB (His-bio) tag, written before Rpt6

[2] = biological target: T2, human proteasome subunit Rpn5 (human, UniProt O00232 2-456); experiment: as above
T2 construct: whole, on cells; endogenous, cross-linked inside intact 293 cells, purified with the HB-tagged bait; also called O00232

[3] = biological target: T3, yeast 20 S proteasome subunit α3 (PRE9) (yeast, UniProt P23638 1-258); experiment: DSSO XL-MS of purified yeast 20S proteasome
T3 sequence (looked up): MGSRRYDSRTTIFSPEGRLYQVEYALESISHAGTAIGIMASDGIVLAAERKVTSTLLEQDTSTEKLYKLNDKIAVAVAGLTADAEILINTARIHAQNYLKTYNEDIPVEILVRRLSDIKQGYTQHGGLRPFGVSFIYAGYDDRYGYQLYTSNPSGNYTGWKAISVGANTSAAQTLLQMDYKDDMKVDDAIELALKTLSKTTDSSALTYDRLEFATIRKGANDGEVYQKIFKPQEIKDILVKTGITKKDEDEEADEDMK

[4] = biological target: T4, yeast 20 S proteasome subunit α6 (PRE5) (yeast, UniProt P40302 1-234); experiment: DSSO XL-MS of purified yeast 20S proteasome
T4 sequence (looked up): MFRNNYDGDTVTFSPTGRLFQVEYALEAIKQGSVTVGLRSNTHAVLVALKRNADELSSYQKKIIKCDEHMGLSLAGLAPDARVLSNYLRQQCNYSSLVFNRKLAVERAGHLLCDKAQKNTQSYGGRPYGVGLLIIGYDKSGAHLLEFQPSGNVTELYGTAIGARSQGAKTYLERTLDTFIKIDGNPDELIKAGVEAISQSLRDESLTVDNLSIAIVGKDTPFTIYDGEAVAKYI

B1: yeast 20 S proteasome subunit β4 (PRE1) (other, UniProt P22141 1-198, looked up)
chain: MDIILGIRVQDSVILASSKAVTRGISVLKDSDDKTRQLSPHTLMSFAGEAGDTVQFAEYIQANIQLYSIREDYELSPQAVSSFVRQELAKSIRSRRPYQVNVLIGGYDKKKNKPELYQIDYLGTKVELPYGAHGYSGFYTFSLLDHHYRPDMTTEEGLDLLKLCVQELEKRMPMDFKGVIVKIVDKDGIRQVDDFQAQ
- binding result [1]: binds

B2: human proteasome subunit α3 (other, UniProt P25789 1-261, looked up)
chain: MSRRYDSRTTIFSPEGRLYQVEYAMEAIGHAGTCLGILANDGVLLAAERRNIHKLLDEVFFSEKIYKLNEDMACSVAGITSDANVLTNELRLIAQRYLLQYQEPIPCEQLVTALCDIKQAYTQFGGKRPFGVSLLYIGWDKHYGFQLYQSDPSGNYGGWKATCIGNNSAAAVSMLKQDYKEGEMTLKSALALAIKVLNKTMDVSKLSAEKVEIATLTRENGKTVIRVLKQKEVEQLIKKHEEEEAKAEREKKEKEQKEKDK
notes: whole, on cells; endogenous, cross-linked inside intact 293 cells, then purified with the HB-tagged bait under denaturing conditions; also called alpha3; alpha-3
- binding result (HB-Rpt6): binds

B3: human proteasome subunit Rpn9 (other, UniProt Q9UNM6 1-376, looked up)
chain: MKDVPGFLQQSQNSGPGQPAVWHRLEELYTKKLWHQLTLQVLDFVQDPCFAQGDGLIKLYENFISEFEHRVNPLSLVEIILHVVRQMTDPNVALTFLEKTREKVKSSDEAVILCKTAIGALKLNIGDLQVTKETIEDVEEMLNNLPGVTSVHSRFYDLSSKYYQTIGNHASYYKDALRFLGCVDIKDLPVSEQQERAFTLGLAGLLGEGVFNFGELLMHPVLESLRNTDRQWLIDTLYAFNSGNVERFQTLKTAWGQQPDLAANEAQLLRKIQLLCLMEMTFTRPANHRQLTFEEIAKSAKITVNEVELLVMKALSVGLVKGSIDEVDKRVHMTWVQPRVLDLQQIKGMKDRLEFWCTDVKSMEMLVEHQAHDILT
notes: whole, on cells; endogenous, cross-linked inside intact 293 cells, purified with the HB-tagged bait; also called Q9UNM6
- binding result [2]: binds

Binder: B4
- binding result [3]: binds

B5: yeast 20 S proteasome subunit β6 (PRE7) (other, UniProt P23724 20-241, looked up)
chain: QFNPYGDNGGTILGIAGEDFAVLAGDTRNITDYSINSRYEPKVFDCGDNIVMSANGFAADGDALVKRFKNSVKWYHFDHNDKKLSINSAARNIQHLLYGKRFFPYYVHTIIAGLDEDGKGAVYSFDPVGSYEREQCRAGGAAASLIMPFLDNQVNFKNQYEPGTNGKVKKPLKYLSVEEVIKLVRDSFTSATERHIQVGDGLEILIVTKDGVRKEFYELKRD
notes: mature
- binding result [4]: binds
